Assay results: patent publication US20060025337

Biological target: T1, p53-382 acetylated peptide substrate ('Fluor de Lys-SIRT1', BIOMOL) (not fully specified)
T1 chain: RHKK

B1: recombinant human SIRT1 (His6-tagged) (protein)
chain: MADEAALALQPGGSPSAAGADREAASSPAGEPLRKRPRRDGPGLERSPGEPGGAAPEREVPAAARGCPGAAAAALWREAEAEAAAAGGEQEAQATAAAGEGDNGPGLQGPSREPPLADNLYDEDDDDEGEEEEEAAAAAIGYRDNLLFGDEIITNGFHSCESDEEDRASHASSSDWTPRPRIGPYTFVQQHLMIGTDPRTILKDLLPETIPPPELDDMTLWQIVINILSEPPKRKKRKDINTIEDAVKLLQECKKIIVLTGAGVSVSCGIPDFRSRDGIYARLAVDFPDLPDPQAMFDIEYFRKDPRPFFKFAKEIYPGQFQPSLCHKFIALSDKEGKLLRNYTQNIDTLEQVAGIQRIIQCHGSFATASCLICKYKVDCEAVRGDIFNQVVPRCPRCPADEPLAIMKPEIVFFGENLPEQFHRAMKYDKDEVDLLIVIGSSLKVRPVALIPSSIPHEVPQILINREPLPHLHFDVELLGDCDVIINELCHRLGGEYAKLCCNPVKLSEITEKPPRTQKELAYLSELPPTPLHVSEDSSSPERTSPPDSSVIVTLLDQAAKSNDDLDVSESKGCMEEKPQEVQTSRNVESIAEQMENPDLKNVGSSTGEKNERTSVAGTVRKCWPNRVAKEQISRRLDGNQYLFLPPNRYIFHGAEVYSDSEDDVLSSSSCGSNSDSGTCQSPSLEEPMEDESEIEEFYNGLEDEPDVPERAGGAGFGTDGDDQEAINEAISVKQEVTDMNYPSNKS
Km for p53-382 acetylated peptide (SIRT1 initial rate at 3 mM NAD+, control, no resveratrol): Km(control, ν)=64 µM
Km for p53-382 acetylated peptide (SIRT1 initial rate at 3 mM NAD+, with 100 µM resveratrol): Km (+resveratrol, Δ)=1.8 µM
fold decrease of the acetylated peptide Km caused by 100 µM resveratrol: Its effect on the acetylated peptide Km was particularly striking, amounting to a 35-fold decrease
